The results in this text go back to US20240164355A1 (VANDERBILT UNIVERSITY, published 2024).

For assay [1], the target named is T1, CinB (CinB^wPip, wPa_0295), co-expressed with His6-CinA from the full operon in E. coli (Wolbachia pipientis, wPip strain).
T1 construct: also called putative DUF1703 nuclease
T1 chain: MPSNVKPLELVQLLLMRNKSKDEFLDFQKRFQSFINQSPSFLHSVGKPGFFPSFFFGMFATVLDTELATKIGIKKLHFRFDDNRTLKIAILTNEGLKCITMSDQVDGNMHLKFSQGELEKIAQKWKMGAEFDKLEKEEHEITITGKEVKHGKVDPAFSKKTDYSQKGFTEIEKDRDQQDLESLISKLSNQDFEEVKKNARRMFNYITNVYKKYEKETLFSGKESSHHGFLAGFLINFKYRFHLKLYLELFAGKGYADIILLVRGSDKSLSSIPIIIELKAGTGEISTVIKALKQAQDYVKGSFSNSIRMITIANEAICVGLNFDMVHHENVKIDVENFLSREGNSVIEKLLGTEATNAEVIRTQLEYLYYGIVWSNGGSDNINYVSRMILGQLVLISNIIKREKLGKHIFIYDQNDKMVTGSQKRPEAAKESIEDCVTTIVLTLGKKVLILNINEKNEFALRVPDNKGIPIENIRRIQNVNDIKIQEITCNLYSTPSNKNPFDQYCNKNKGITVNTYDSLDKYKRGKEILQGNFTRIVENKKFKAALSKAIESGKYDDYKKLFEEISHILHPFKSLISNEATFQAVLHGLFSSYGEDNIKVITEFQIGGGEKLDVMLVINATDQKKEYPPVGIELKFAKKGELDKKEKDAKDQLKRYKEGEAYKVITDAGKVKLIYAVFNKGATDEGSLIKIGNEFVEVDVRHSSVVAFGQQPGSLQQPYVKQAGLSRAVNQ
Kind of assay: summary of the pulldown experiments of Example 2.

Assay [2] concerns the target T2, CidB (CidB^wPip, wPa_0283), co-expressed with His6-CidA from the full operon in E. coli (Wolbachia pipientis, wPip strain).
T2 construct: also called toxin
T2 chain: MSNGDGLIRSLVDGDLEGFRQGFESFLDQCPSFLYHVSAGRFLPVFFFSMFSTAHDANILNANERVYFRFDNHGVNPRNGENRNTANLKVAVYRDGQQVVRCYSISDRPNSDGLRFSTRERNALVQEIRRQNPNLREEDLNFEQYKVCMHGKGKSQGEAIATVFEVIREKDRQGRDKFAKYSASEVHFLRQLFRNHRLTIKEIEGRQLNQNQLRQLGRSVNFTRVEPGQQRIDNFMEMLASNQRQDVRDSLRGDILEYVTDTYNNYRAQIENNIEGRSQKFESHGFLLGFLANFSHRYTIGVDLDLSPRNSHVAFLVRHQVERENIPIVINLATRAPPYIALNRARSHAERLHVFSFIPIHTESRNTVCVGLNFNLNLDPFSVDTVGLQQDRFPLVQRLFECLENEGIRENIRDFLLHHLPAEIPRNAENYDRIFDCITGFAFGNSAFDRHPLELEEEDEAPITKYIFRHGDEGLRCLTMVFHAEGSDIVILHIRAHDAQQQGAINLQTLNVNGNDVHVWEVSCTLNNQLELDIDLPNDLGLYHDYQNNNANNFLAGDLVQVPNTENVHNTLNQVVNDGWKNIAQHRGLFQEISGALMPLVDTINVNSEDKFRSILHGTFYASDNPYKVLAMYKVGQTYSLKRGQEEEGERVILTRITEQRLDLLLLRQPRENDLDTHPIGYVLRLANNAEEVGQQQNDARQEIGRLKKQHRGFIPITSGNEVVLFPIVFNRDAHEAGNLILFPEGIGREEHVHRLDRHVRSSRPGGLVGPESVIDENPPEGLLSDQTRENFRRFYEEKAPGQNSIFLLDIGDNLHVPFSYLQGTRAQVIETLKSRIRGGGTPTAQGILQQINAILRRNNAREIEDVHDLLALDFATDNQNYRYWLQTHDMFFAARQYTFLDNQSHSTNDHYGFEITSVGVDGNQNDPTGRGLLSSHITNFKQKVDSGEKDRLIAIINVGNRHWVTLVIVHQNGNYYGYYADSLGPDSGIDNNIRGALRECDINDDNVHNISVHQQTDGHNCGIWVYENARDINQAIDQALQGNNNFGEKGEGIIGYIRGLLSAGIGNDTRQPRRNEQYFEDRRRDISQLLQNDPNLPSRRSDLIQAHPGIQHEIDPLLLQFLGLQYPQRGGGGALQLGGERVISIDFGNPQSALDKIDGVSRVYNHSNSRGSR
Nature of the assay: summary of the pulldown experiments of Example 2.

B1: His6-CinA (CinA^wPip, wPa_0294, His6-tagged) (other)
chain: MESGLDHNYNKILDILKGAIKGDDNQVKARKHLRVERWLRAYIQLIEDFDEEKLIFFSDIFSDNSCWDGIKLKNKAVGERLTEEKNKNGKENPLDLADRYYLACKYCLEDKIPGLFEQVFMRFKRSAFEEDGSDDDLRRELLENIEETSPIEAFWSFLIDKQIGKLNEYKSVEGLQKSIQINSNKNWEEGIEFFYNKLHNDSSISSQDKDDLLIEAALSAVKGYKEVDTIEFCLSKMDDEQKKKLLDRDYKENTYYAVLNVLVGQYYFDSFMELSRLCSQIECERYTTFLSSLSDQVLKNPDLSEETKKCMMNVWERIIKLKTQDRGEQSISSIFVDYSVTYTIANLIVDPSRQGVSKEEILGKILKHVKEMSGEEMIKVKDSVLSKIQLFHGGKKLQLGEQVFSKLAQEASKESILREAGDTLPQSSLSTTDTPYNIKSLSHSK
Regarding B1, in assay [1], the binding result is recorded as “binds”.

B2: His6-CidA (CidA^wPip, wPa_0282, N-terminally His6-tagged) (other)
chain: MPTQKELRDTMSKKLQEAIKHPDPAVVAGRKSAIKRWVGVLQDNFMEHIKYFKGDKLKFLHNVFQDEGCWSGVRLDNAALGQRFTEEKIGGIDNPLRKYEMACSYCVVDKIHPLFQKRFESYRNKFPPGAFDGKTETEFGKYVRNSLLDSIKRKGPVFDFWIDRESGELKKYDAVEGFDSAVKFKWSEGVEYFYNHLKEEDKEKKLTEAILALSRVQSVEKDAPILDFCVNKIVDKDTLLQKLSQKDKGVYSLFAELIESCFFDTVHDLVQCWCYKEVSAGGDHSEKIFSQRDYELFLSSLSDTMLKNPELSVQARSLIMEFWECGSLYQYRKAAVNTSNYTVPTSGVFAELIVNWRREDIYKTDEEKEIEKKEILDMMSFAKDCFPEKFELFKKLIIRDLRLCGREGKRVNVDYGLFAEELFSELEKTILPPGPVGDGPCSNLRSRSKAHGSKKTTLPVDDSPQSELGTPSVSGVSSYKKKSVFTLSGNK
notes: also called His6-tagged CidA; antidote
For B2, the binding result in assay [2] is reported as “binds”.
